Measured values reported in article PMC4725879.

Assays:
[1] = test system: LacI-Gly60+3 (Escherichia coli); test: EMSA; conditions: 5 mM Mg2+; EMSA: 20 mM Tris-HCl pH 8.0, 200 mM NaCl, 0.5 mM EDTA, 1 mM DTT, 5 mM MgCl2, 5% glycerol, 0.1 nM DNA, 22 C, 60 min; nicking assays at 37 C
[2] = test system: LacI (lac repressor), wild type (Escherichia coli); test: EMSA; conditions: no IPTG; 5 mM Mg2+; EMSA: 20 mM Tris-HCl pH 8.0, 200 mM NaCl, 0.5 mM EDTA, 1 mM DTT, 5 mM MgCl2, 5% glycerol, 0.1 nM DNA, 22 C, 60 min; nicking assays at 37 C

## lac O2 fragment
[1]
  Ka: 6.2e+08 M⁻¹

## lac Os fragment
[1]
  Ka: 2.4e+09 M⁻¹

## lac O1 fragment
[2]
  Ka: 1.2e+10 M⁻¹
[1]
  Ka: 1e+09 M⁻¹
